From the RNAGym collection of RNA variant scans (doi:10.7554/elife.80360)

B1: HDV Ribozyme (parent)
chain: GGCCGGCAUGGUCCCAGCCUCCUCGCUGGCGCCGGCUGGGCAACAUUCCGAGGGGACCGUCCCCUCGGUAAUGGCGAAUGGGACCCA

Variants of: B1
Assay: self-cleavage, relative activity (ratio to wild type); higher = more cleavage; co-transcriptional
With UGCCGGCAUGGUCCCAGCCUCCUAGCUGGCGCCGGCUGGGCAACAUUCCGAGGGGACCGUCCCCUCGGUAAUGGCGAAUGGGACCCA [G1U C24A] the self-cleavage was 0.183.
Work on GGCCGGCAUGCUCCCAGCCUCCUCGCUGGCGCCGGCUGGGCAACGUUCCGAGGGGACCGUCCCCUCGGUAAUGGCGAAUGGGACCCA [G11C A45G] yielded a self-cleavage of 0.249.
For GGCCGGCAUGGUCCCAGCCUCCUCUCUGGAGCCGGCUGGGCAACAUUCCGAGGGGACCGUCCCCUCGGUAAUGGCGAAUGGGACCCA [G25U C30A], the self-cleavage was 0.158.
Work on UGCCGGCAUGGUCCCAGCCUCCUCGCUGGCGCCGGCUGGGCAACAUUCCGAGGGGACCGUCCCGUCGGUAAUGGCGAAUGGGACCCA [G1U C64G] yielded a self-cleavage of 0.432.
GGCCGGCAUGGUCCCAGACUCCUCGCUGGCGCCGGCUGGGCAACAUUCCGAGGGGAUCGUCCCCUCGGUAAUGGCGAAUGGGACCCA [C18A C57U] showed a self-cleavage of 0.086.
Work on GGCCGGCAUGGUCCCAGCCCCCUCGCUGGCGCCCGCUGGGCAACAUUCCGAGGGGACCGUCCCCUCGGUAAUGGCGAAUGGGACCCA [U20C G34C] yielded a self-cleavage of 0.
In the case of GGCCGGCAUGGUCCCAGCCUCCUCGCUGGCGCCCGCUGGGCAACAUUCCGAGCGGACCGUCCCCUCGGUAAUGGCGAAUGGGACCCA [G34C G53C], the self-cleavage is reported as 0.0898.
Variant GGCCGGCAUGGUCCCAGCCUCCUCGCUGGCGCCGGCUGGGCAACAUUCCGGGGGGACCGUCCCCUCGGUAAUGCCGAAUGGGACCCA [A51G G74C] has a self-cleavage of 0.148.
GGCCGGCAUGGUCCCAGCCUCCUCGCUGGCGCCGGCUGGGCAAUAUUCCGAGGGGACCGUCCCCUCGGUAAUGGAGAAUGGGACCCA [C44U C75A] showed a self-cleavage of 0.108.
GGCCGGCAUGGUCCCAGCCUCCGCGCUGGCGCCGGCCGGGCAACAUUCCGAGGGGACCGUCCCCUCGGUAAUGGCGAAUGGGACCCA [U23G U37C] showed a self-cleavage of 0.751.
Variant GGCCGGCAUGGUUCCAGCCUCCUCGCUGGCGACGGCUGGGCAACAUUCCGAGGGGACCGUCCCCUCGGUAAUGGCGAAUGGGACCCA [C13U C32A] has a self-cleavage of 0.172.
In the case of GGCCGGCAUGGUCCCAGCCUCGUCGCUGGCGCCGGCUGGGCAACAUUCCGAGGGGACCGUCCCCUCGGUCAUGGCGAAUGGGACCCA [C22G A70C], the self-cleavage is reported as 0.0489.
GGCCGGCAUGGUCCCAGCCUCCUCGCUGGUGCCGGCUGGGCAACAUUCCGAGGGGACCGUCCACUCGGUAAUGGCGAAUGGGACCCA [C30U C63A] gave a self-cleavage of 0.466.
GGCCGGCAUGGUCCCAGCCUCCUCCCUGGCGCCGGCUGGGCAACAUUCCGAGGGGACCGUCCCCUCGGUAAUGGCGGAUGGGACCCA [G25C A77G] showed a self-cleavage of 0.111.
In the case of GGCCGGCGUGGUCCCAGCCUCCUCGCGGGCGCCGGCUGGGCAACAUUCCGAGGGGACCGUCCCCUCGGUAAUGGCGAAUGGGACCCA [A8G U27G], the self-cleavage is reported as 0.831.
Variant GGCCGGCAUGGUCCCAGCCUCCUCGCUGGCGCCGGCCGGGCAACAUUCCGAGGGGACCGUCCCCUCGGUAAUGGCGAAUCGGACCCA [U37C G80C] has a self-cleavage of 0.288.
In the case of GGCCGGCAUGGUACCAGCCUCCUCGCUGGCGCCGGCUGGGCAACAUUCCGAGGGGACCGUCCCCUCGGUAAUGGCGGAUGGGACCCA [C13A A77G], the self-cleavage is reported as 0.
With GGCCGGCAUGGUCCCAGCCUCCUCGAUGGCGCCGGCUGGGCAACAUUCCGAGGGGACCGUCCCCUCGGUAAUGGCGAAUUGGACCCA [C26A G80U] the self-cleavage was 0.398.
Work on GGCCGGCAUGGUCCUAGCCUCCUCGCUGUCGCCGGCUGGGCAACAUUCCGAGGGGACCGUCCCCUCGGUAAUGGCGAAUGGGACCCA [C15U G29U] yielded a self-cleavage of 0.0594.
GGCCGGCAUGGUCCCAGCCUCCUCGCUGGCGCCGGCUGGGCAACAUUCCGAUGGGACCGUCCCCUCGGUACUGGCGAAUGGGACCCA [G52U A71C] gave a self-cleavage of 0.745.
With GGCCGGCAUGGUCCCAGCCUCCUCGCUGGCGCCGGCUGGGCAACAUUCCGAGGGGCGCGUCCCCUCGGUAAUGGCGAAUGGGACCCA [A56C C57G] the self-cleavage was 0.978.
GGCCGGCAUGGUCCCAGCAUCCUCGCUGGCGCCGGCUGGGCAACAUUCCGAGGGGAGCGUCCCCUCGGUAAUGGCGAAUGGGACCCA [C19A C57G] gave a self-cleavage of 0.119.
GGCCGGCAUGGUCCCAGCCUCCUCGCUGGCGCCGGCUGGGCACCAUUCCGAGGGGACCGUCCCCUCGGUAAUGGCGAAUGAGACCCA [A43C G81A] showed a self-cleavage of 0.248.
Variant GGCCGGCGUGGUCCCAGCCUCCUCGCUGGCGCCGGCUGGGCAACAGUCCGAGGGGACCGUCCCCUCGGUAAUGGCGAAUGGGACCCA [A8G U46G] has a self-cleavage of 0.623.
For GGCCGGCAUGGUCCCAGCCUCCUCGCUGGCGCCGGCUGGGCAACAUUCCAAGGGGACCGUCCCCUCAGUAAUGGCGAAUGGGACCCA [G50A G67A], the self-cleavage was 1.17.
For GGCCGGCAUGGUCCCAGCCUCCUCGCUGGCGCCGGCUGGGCAACAUUCCGAGGGGACCGUCCCCGCGGUAAUGGCGACUGGGACCCA [U65G A78C], the self-cleavage was 0.119.
GGCCGGCAUGGGCCCAGCCUCCUCGCUGGCGCCGGCUGGGCAACAUUCCGUGGGGACCGUCCCCUCGGUAAUGGCGAAUGGGACCCA [U12G A51U] gave a self-cleavage of 1.13.
For GGCCGGCAUGGUCCCAGCCUCCUCGCUGGCGCCGGCUGGGCAACAUUCCGAGGGGACAGUCCCUUCGGUAAUGGCGAAUGGGACCCA [C58A C64U], the self-cleavage was 1.15.
In the case of GGCCGGCAUGGUCCCAGCCUCCUCGCUGGCGCCGGUUGGGCAAGAUUCCGAGGGGACCGUCCCCUCGGUAAUGGCGAAUGGGACCCA [C36U C44G], the self-cleavage is reported as 0.231.
GGCCGUCAUGGUCCCAGCCUCCUCGCUGGCGCCGCCUGGGCAACAUUCCGAGGGGACCGUCCCCUCGGUAAUGGCGAAUGGGACCCA [G6U G35C] showed a self-cleavage of 0.0437.
Work on GGCCGGCAUGGUCACAGCCUCAUCGCUGGCGCCGGCUGGGCAACAUUCCGAGGGGACCGUCCCCUCGGUAAUGGCGAAUGGGACCCA [C14A C22A] yielded a self-cleavage of 0.0692.
With GGCCGGCAUGGUCCCAGCCUCCUCGCUGGCGCCGGCUGGGCAACAUUCCGAGGGGACCGUCCCCUCGGUACCGGCGAAUGGGACCCA [A71C U72C] the self-cleavage was 0.185.
